This is an account of results in PMC6817910, “Aspartate/asparagine-β-hydroxylase crystal structures reveal an unexpected epidermal growth factor-like domain substrate disulfide pattern” (Nature Communications, 2019).

In the assay the target is T1, N-terminally His6-tagged AspH_(315–758) (human aspartate/asparagine-β-hydroxylase, TPR and oxygenase domains) (human, UniProt Q12797 315-758).
T1 construct: human aspartate/asparagine-β-hydroxylase (AspH), residues 315-758: TPR domain (aa 330-555), hinge-loop region (aa 556-577) and 2OG oxygenase domain; pET-28a(+) construct; crystallised with Mn(II) in place of Fe(II) and N-oxalylglycine (NOG); also called AspH-TPR-Ox; His6-AspH_(315–758); not shown: His6, N-terminal, kept
T1 sequence (looked up): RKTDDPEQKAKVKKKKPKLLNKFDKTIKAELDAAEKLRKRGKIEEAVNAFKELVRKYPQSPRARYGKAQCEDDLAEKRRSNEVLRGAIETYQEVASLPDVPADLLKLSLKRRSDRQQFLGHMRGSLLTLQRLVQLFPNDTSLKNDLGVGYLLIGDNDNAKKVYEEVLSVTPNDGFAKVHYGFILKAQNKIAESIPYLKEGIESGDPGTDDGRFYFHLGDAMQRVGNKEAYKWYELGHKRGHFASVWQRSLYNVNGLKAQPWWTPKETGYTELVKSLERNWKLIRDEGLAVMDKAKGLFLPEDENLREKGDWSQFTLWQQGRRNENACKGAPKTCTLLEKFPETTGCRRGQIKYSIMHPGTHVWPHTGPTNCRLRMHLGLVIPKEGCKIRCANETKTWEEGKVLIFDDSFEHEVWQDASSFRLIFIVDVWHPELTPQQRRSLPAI
Description: crystal structure; N-terminally His6-tagged AspH_(315–758) (18 mg/mL in 50 mM HEPES, pH 7.5) mixed with 1 mM MnCl2, 2 mM N-oxalylglycine and the AspH-substrate; co-crystallised by vapour diffusion at 4 °C in sitting drops. The conditions noted are these: both partners purified.

Where a chain is given by its changes, count along the chain named. Bridge positions count the residues as written; N and C are the ends. Ends that are not written are not given here.

B1: hFX EGF1_(39mer), N-terminal EGF-like domain of human coagulation factor X (aa 86–124) (peptide, UniProt P00742 86-124, looked up)
peptide: DGDQCETSPCQNQGKCKDGLGEYTCTCLEGFEGKNCELF
modifications: disulfide 27-36; not fully specified (C-terminus); also: mixture of canonical (Cys1–3, 2–4) and non-canonical (Cys1–2, 3–4) isomers, crystal: Cys101–Cys110
notes: human coagulation factor X, first EGF-like domain, aa 86-124; The peptide batch is a mixture of disulfide isomers; also called NC_(39mer) peptide (the non-canonical disulfide isomer seen in the crystal); 39-residue fragment of hFX EGF1
Regarding B1, the binding result is on record as “binds”.

B2: NC-4Ser_(39mer), hFX EGF1_(39mer) with cysteines 1, 2, 5 and 6 (aa 90, 95, 112 and 121) replaced by serines (peptide, UniProt P00742 86-124, looked up)
peptide: B1 peptide with C5S, C10S, C27S, C36S
modifications: disulfide 16-25
notes: human coagulation factor X, first EGF-like domain, aa 86-124, with Cys90, 95, 112 and 121 substituted for Ser; also called NC-Ser_(39mer); NC-4Ser_(39mer) peptide; source: synthetic peptide (GL Biochem (Shanghai) Ltd, single disulfide isomer)
B2: the binding result is listed as “binds”.

B3: NC_(26mer), truncated 26mer hFX EGF1 substrate (aa 86–111) with the non-canonical disulfide arrangement (Cys1–2, 3–4) (peptide, UniProt P00742 86-111, looked up)
peptide: DGDQCETSPCQNQGKCKDGLGEYTCT
modifications: disulfide 5-10, 16-25
notes: human coagulation factor X, first EGF-like domain, aa 86-111, lacking the Cys5–6 disulfide-forming residues; also called NC_(26mer) peptide; source: synthetic peptide (GL Biochem (Shanghai) Ltd, orthogonal cysteine protection, single disulfide isomer)
Take B3: the binding result is reported as “binds”.
